Assays:
[1] = target: hPcf11 (CF II subunit);hClp1 (CF II subunit or alone) (human;human) (UniProt O94913+Q92989); assay: filter binding
[2] = target: T1, hClp1 (CF II subunit or alone) (human) (UniProt Q92989); assay: filter binding
T1 sequence: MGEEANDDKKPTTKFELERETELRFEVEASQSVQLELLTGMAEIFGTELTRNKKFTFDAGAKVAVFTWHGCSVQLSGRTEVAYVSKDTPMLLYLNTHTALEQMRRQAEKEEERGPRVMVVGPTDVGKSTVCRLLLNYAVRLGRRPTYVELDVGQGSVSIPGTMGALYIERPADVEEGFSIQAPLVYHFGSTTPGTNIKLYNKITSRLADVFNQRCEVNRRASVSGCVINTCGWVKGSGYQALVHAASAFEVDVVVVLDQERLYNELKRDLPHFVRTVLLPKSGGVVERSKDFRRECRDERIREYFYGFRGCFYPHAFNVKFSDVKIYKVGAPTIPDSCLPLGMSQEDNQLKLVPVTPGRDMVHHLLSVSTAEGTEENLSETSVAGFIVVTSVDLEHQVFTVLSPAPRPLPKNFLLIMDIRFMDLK

Chain of hPcf11 (CF II subunit);hClp1 (CF II subunit or alone) (human;human) (O94913 whole entry, one chain of several): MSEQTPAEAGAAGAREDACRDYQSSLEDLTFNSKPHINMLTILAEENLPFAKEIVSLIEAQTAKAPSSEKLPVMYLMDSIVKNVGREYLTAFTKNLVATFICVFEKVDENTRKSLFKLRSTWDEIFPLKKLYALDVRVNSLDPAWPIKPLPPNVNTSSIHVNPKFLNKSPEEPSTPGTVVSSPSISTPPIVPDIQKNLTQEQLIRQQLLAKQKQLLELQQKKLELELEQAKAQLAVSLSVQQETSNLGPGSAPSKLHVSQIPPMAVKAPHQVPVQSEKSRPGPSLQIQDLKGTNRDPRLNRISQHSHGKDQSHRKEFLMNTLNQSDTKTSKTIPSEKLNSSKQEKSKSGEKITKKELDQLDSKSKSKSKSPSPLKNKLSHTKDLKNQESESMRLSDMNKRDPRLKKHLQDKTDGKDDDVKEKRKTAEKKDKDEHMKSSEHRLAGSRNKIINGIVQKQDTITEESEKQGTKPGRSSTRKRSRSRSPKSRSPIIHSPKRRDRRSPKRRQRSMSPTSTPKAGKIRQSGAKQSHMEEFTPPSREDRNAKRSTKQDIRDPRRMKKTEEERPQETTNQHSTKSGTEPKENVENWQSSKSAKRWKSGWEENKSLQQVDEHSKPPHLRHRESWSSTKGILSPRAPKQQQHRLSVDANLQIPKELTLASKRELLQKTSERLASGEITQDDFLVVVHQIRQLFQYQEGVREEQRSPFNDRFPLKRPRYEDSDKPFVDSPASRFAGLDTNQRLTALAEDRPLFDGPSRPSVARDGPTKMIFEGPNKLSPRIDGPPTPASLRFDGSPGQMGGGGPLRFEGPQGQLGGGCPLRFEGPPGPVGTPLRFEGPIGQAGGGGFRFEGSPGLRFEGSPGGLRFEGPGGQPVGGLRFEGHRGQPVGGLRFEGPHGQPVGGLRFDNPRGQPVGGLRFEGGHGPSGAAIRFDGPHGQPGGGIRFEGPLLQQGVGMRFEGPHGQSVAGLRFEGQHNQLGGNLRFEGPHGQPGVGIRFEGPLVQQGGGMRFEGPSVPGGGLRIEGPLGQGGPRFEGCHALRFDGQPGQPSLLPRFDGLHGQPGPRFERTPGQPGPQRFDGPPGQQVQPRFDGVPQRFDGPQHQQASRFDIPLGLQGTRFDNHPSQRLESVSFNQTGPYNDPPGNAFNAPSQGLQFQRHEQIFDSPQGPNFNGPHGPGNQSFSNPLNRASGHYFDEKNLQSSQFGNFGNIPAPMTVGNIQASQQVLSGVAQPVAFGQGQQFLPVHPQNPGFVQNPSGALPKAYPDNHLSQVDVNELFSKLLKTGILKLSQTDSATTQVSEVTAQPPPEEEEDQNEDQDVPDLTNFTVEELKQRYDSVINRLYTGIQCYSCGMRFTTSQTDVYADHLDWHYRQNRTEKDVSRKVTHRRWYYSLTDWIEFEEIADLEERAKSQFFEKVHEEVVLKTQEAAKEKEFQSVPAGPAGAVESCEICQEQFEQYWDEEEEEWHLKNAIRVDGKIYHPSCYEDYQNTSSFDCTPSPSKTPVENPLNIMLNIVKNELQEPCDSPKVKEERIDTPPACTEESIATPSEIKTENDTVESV

Row | Substance | K half [1] [nM] | K half [2] [nM]
1 | L3 RNA | 0.9 | –
2 | SV40 late RNA | 0.4 | 140
